According to publication PMC7721737, “Cytosolic sequestration of the vitamin D receptor as a therapeutic option for vitamin D-induced hypercalcemia” (Nature Communications, 2020):
Blank lines part the entries; values can stand above or below the binder they belong to.

Legend:
[1] = biological target: T1, full-length human vitamin D receptor (hVDR, amino acid 1-427), His-tagged (human, UniProt P11473 1-427); assay: SEC; mixed in stoichiometric amounts and purified on HiLoad Superdex 200 in 20 mM Tris pH 8.0, 75 mM NaCl, 75 mM KCl, 2 mM CHAPS, 5% glycerol, 4 mM MgSO4, 1 mM TCEP; heterodimer then used for HDX-MS (apo, 1,25D3, ZK); details: both partners purified
T1 construct: For microscale thermophoresis the protein was labelled with the Red-NHS second generation labelling kit (NanoTemper); also called NR1I1; hVDR full-length; source: E. coli BL21 DE3, purified (HisTrap, SEC)
T1 sequence (looked up): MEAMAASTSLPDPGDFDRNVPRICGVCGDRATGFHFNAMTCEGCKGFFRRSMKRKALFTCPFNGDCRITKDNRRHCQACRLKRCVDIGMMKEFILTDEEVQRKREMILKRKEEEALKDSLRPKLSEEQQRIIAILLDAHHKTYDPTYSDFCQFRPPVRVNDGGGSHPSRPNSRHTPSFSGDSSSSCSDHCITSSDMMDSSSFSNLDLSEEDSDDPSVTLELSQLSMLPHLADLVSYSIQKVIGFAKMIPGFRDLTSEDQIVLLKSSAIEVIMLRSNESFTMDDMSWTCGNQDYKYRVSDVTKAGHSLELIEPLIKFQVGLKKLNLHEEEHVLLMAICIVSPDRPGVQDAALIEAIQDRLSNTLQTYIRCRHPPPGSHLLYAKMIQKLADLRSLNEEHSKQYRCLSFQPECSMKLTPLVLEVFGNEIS

[2] = biological target: T2, ligand binding domain of hVDR (aa 118-427), His-tagged (human, UniProt P11473 118-427); assay: SPR; Biacore T200, hRXRα LBD monomers amine-coupled on CM5 (400-500 RU); hVDR LBD 1-30 µM without ligand or with a 3-fold excess of 1,25D3 or ZK; 50 mM Tris pH 7.5, 150 mM NaCl, 1 mM TCEP, 0.005% Tween 20; steady state fit; details: both partners purified
T2 construct: also called hVDR LBD; source: E. coli BL21 DE3, purified (HisTrap, SEC)
T2 sequence (looked up): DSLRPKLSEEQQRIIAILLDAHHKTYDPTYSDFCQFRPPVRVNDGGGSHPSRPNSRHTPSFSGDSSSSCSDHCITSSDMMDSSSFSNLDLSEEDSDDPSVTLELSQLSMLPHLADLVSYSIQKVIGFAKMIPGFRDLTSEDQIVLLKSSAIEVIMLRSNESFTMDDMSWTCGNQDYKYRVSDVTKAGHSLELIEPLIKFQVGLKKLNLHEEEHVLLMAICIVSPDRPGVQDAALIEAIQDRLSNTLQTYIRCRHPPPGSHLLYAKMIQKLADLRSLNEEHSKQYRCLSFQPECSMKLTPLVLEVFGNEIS

[3] = biological target: T1, full-length human vitamin D receptor …; assay: MST; Monolith NT.115; 10 nM Red-NHS labelled full-length hVDR with or without ZK; unlabelled WBP4 122-196 from 100 µM to 1 nM; 20 mM Hepes pH 7.5, 200 mM NaCl, 2% glycerol, 1 mM TCEP, 0.05% Tween 20; 25 °C; 1:1 fit, apparent Kd; details: both partners purified
[4] = biological target: T3, full-length human vitamin D receptor (hVDR, amino acid 1-427), His-tagged (human, UniProt P11473 1-427); assay: MST; ZK-bound VDR
T3 chain: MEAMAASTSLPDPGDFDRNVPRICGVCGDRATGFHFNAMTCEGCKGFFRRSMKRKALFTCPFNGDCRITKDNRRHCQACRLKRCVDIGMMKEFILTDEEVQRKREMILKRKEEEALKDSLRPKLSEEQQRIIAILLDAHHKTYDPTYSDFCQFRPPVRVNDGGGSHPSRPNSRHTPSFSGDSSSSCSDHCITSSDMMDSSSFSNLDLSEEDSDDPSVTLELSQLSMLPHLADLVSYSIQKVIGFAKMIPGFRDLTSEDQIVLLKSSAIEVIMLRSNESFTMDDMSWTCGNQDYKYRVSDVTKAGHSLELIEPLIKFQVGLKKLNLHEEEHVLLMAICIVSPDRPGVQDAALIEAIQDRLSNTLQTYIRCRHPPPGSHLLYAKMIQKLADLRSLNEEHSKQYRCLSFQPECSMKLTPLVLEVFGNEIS

- binding result [1]: binds
B1: N-terminal domain truncated human RXRalpha (hRXRαΔNTD, amino acid 130-462), His-tagged (domain or fragment, UniProt P19793 130-462, looked up)
chain: FTKHICAICGDRSSGKHYGVYSCEGCKGFFKRTVRKDLTYTCRDNKDCLIDKRQRNRCQYCRYQKCLAMGMKREAVQEERQRGKDRNENEVESTSSANEDMPVERILEAELAVEPKTETYVEANMGLNPSSPNDPVTNICQAADKQLFTLVEWAKRIPHFSELPLDDQVILLRAGWNELLIASFSHRSIAVKDGILLATGLHVHRNSAHSAGVGAIFDRVLTELVSKMRDMQMDKTELGCLRAIVLFNPDSKGLSNPAEVEALREKVYASLEAYCKHKYPEQPGRFAKLLLRLPALRSIGLKCLEHLFFFKLIGDTPIDTFLMEMLEAPHQMT
notes: source: E. coli BL21 DE3, purified (HisTrap, SEC)

- binding result [2]: binds
B2: ligand binding domain of hRXRα (aa 223-462), His-tagged (domain or fragment, human, UniProt P19793 223-462, looked up)
chain: TSSANEDMPVERILEAELAVEPKTETYVEANMGLNPSSPNDPVTNICQAADKQLFTLVEWAKRIPHFSELPLDDQVILLRAGWNELLIASFSHRSIAVKDGILLATGLHVHRNSAHSAGVGAIFDRVLTELVSKMRDMQMDKTELGCLRAIVLFNPDSKGLSNPAEVEALREKVYASLEAYCKHKYPEQPGRFAKLLLRLPALRSIGLKCLEHLFFFKLIGDTPIDTFLMEMLEAPHQMT
notes: Immobilised as monomers on the SPR chip; also called hRXRα LBD; source: E. coli BL21 DE3, purified (HisTrap, SEC)

- fold increase of the affinity in the presence of ZK against without ZK [3]: ~2 fold
- Kd [4]: 11 µM
B3: hWBP4 polypeptide (amino acid 122-196) encompassing the two WW domains (domain or fragment, human, UniProt O75554 122-196, looked up)
chain: DPSKGRWVEGITSEGYHYYYDLISGASQWEKPEGFQGDLKKTAVKTVWVEGLSEDGFTYYYNTETGESRWEKPDD
notes: also called FBP21; source: E. coli BL21 DE3, purified (glutathione sepharose, thrombin cleavage, SEC); not shown: GST, N-terminal, cleaved
